{"source": "paper doi:10.1101/426874v1", "substrate": "O=C(O)C(=O)O", "assay": "purified protein", "details": "typical values given as a range; decarboxylase activity; Mn enzyme"}
{"protein": "Oxalate Decarboxylase (OxDC), WT, His6-tagged (Bacillus subtilis subsp. subtilis str. 168) (protein) MKKQNDIPQPIRGDKGATVKIPRNIERDRQNPDMLVPPETDHGTVSNMKFSFSDTHNRLEKGGYAREVTVRELPISENLASVNMRLKPGAIRELHWHKEAEWAYMIYGSARVTIVDEKGRSFIDDVGEGDLWYFPSGLPHSIQALEEGAEFLLVFDDGSFSENSTFQLTDWLAHTPKEVIAANFGVTKEEISNLPGKEKYIFENQLPGSLKDDIVEGPNGEVPYPFTYRLLEQEPIESEGGKVYIADSTNFKVSKTIASALVTVEPGAMRELHWHPNTHEWQYYISGKARMTVFASDGHARTFNYQAGDVGYVPFAMGHYVENIGDEPLVFLEIFKDDHYADVSLNQWLAMLPETFVQAHLDLGKDFTDVLSKEKHPVVKKKCSK", "values": [{"measurement": "kcat", "value": "50 − 60 s^-1"}]}
